Holding throughout (test): GST-protein-interaction test
Assay type in all cases: binding
Holding throughout (settings): in vitro

Assay [1] deals with T1, co-activator RIP140 (Homo sapiens, UniProt P48552).
T1 sequence (P48552 1-1158): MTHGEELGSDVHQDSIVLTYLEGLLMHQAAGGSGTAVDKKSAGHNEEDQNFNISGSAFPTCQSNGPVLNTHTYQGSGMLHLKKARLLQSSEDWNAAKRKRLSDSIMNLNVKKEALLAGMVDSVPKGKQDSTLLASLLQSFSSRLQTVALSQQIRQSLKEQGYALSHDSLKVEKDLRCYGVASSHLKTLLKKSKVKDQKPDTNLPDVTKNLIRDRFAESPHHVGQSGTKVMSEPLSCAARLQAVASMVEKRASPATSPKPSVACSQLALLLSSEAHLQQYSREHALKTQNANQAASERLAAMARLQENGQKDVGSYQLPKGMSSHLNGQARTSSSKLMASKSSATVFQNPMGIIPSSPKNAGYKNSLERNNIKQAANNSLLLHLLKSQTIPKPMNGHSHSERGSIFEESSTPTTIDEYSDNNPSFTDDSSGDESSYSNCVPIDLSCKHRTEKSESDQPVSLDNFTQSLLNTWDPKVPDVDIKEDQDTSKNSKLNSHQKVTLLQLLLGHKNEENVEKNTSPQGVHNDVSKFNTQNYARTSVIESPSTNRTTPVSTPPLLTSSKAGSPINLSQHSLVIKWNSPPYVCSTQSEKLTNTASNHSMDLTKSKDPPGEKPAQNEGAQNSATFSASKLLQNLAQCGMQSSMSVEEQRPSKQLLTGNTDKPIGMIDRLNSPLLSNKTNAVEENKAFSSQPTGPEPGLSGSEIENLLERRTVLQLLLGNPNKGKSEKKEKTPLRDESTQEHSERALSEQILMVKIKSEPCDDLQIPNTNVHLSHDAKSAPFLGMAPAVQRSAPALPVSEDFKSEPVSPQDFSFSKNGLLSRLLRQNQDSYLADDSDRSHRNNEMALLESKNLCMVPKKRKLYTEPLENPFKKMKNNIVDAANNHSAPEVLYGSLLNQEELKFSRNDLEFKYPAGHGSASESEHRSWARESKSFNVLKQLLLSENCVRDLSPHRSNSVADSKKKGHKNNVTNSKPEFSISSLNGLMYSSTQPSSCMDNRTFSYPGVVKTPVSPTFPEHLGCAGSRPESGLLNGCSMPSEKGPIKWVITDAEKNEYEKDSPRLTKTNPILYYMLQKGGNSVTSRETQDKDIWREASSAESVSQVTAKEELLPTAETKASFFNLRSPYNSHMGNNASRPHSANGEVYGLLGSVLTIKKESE
T1 sequence (Q14192 1-279 partner): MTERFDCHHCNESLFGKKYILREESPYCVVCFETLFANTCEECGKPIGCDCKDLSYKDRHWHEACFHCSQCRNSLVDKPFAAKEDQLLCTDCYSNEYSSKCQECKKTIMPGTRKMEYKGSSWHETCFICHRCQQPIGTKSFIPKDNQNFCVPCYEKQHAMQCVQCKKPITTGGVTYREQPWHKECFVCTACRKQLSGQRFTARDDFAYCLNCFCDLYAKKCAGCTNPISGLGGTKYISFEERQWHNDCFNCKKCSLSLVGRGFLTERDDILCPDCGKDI

For assay [2], the target named is co-activator SRC1 (Homo sapiens, UniProt Q15788).
The target in assay [3] is T2, estrogen receptors alpha (Homo sapiens, UniProt P03372).
T2 construct: made in house; host or cells: in vitro translation, 35S-methionine labelled
T2 sequence (P03372 1-595): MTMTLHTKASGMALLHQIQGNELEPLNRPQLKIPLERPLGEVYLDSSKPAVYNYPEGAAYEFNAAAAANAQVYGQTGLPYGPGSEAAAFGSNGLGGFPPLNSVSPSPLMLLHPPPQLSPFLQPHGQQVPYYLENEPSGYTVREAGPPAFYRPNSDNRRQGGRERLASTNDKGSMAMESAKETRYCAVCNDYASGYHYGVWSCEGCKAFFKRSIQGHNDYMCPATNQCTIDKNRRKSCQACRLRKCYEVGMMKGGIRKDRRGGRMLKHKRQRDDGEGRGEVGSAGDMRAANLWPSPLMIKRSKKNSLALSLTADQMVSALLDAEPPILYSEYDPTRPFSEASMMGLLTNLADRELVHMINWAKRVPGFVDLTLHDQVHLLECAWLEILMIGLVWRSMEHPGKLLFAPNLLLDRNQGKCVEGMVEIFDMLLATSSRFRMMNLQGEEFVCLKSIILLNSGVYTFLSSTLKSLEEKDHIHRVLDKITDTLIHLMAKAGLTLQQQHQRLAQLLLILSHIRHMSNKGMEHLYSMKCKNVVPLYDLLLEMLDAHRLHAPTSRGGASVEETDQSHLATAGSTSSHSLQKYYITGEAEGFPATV
As for the experimental part: To measure the interaction between SLIM3 and the nuclear receptors in vitro, the GST-Slim3 fusion protein was immobilized by means of glutathione-sepharose and incubated with several in vitro-translated ^35S-methionine-labeled nuclear receptors. The complete human androgen receptor binds to GST-Slim3. This in vitro interaction is not ligand-dependent under standard conditions. The complete human androgen receptor binds specifically to GST-Slim3, but not to the GST protein alone. To safeguard the specificity between the human androgen receptor and SLIM3, another GST-protein-interaction test was carried out (GST-protein-interaction assay). This test is described in E. PFITZNER et al. (1995) Functional Antagonism Between the Retinoid Acid Receptor and the Viral Transactivator BZLF1 is Mediated by Protein-Protein Interactions. Proc Natl Acad Sci USA Vol. 92, pp. 12265-12269.

The target in assay [4] is co-activator AIB/ACTR (Homo sapiens, UniProt Q9Y6Q9).
Chain of co-activator AIB/ACTR (Q9Y6Q9 whole entry, one chain of several): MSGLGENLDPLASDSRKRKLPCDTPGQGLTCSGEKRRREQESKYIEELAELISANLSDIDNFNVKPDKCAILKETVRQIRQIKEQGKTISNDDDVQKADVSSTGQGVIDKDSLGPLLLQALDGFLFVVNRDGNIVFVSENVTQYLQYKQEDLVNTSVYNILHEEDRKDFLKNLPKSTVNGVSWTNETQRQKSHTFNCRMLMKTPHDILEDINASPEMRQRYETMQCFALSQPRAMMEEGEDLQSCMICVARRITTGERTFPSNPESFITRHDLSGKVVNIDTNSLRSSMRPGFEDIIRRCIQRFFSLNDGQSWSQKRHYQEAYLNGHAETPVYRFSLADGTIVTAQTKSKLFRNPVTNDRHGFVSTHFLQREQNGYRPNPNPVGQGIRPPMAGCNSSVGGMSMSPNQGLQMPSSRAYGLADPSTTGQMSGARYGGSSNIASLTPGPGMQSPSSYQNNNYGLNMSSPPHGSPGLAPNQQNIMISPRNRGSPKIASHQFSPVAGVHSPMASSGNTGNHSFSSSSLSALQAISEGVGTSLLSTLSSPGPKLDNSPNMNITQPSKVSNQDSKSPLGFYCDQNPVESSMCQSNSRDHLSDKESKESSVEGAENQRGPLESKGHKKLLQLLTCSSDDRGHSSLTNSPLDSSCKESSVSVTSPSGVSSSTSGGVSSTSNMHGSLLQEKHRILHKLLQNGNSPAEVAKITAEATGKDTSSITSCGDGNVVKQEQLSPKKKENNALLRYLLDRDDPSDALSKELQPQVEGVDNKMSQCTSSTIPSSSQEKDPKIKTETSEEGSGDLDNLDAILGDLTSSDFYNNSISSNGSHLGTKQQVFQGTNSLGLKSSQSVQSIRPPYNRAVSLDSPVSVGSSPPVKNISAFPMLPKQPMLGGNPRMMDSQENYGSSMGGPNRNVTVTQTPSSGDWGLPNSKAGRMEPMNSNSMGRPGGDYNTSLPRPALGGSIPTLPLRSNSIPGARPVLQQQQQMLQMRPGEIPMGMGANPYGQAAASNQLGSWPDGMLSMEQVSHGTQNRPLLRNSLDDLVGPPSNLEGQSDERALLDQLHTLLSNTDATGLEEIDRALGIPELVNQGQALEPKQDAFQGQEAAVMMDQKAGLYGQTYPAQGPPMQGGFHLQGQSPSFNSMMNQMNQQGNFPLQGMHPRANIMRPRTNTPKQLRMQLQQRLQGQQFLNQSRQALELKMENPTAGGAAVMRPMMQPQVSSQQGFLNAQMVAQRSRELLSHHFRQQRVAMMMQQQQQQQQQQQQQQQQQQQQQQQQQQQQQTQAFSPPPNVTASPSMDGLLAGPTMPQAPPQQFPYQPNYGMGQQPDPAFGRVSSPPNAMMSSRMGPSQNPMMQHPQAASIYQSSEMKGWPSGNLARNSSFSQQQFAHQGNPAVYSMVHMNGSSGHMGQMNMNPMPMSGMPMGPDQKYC

Chain of co-activator SRC1 (Q15788 whole entry): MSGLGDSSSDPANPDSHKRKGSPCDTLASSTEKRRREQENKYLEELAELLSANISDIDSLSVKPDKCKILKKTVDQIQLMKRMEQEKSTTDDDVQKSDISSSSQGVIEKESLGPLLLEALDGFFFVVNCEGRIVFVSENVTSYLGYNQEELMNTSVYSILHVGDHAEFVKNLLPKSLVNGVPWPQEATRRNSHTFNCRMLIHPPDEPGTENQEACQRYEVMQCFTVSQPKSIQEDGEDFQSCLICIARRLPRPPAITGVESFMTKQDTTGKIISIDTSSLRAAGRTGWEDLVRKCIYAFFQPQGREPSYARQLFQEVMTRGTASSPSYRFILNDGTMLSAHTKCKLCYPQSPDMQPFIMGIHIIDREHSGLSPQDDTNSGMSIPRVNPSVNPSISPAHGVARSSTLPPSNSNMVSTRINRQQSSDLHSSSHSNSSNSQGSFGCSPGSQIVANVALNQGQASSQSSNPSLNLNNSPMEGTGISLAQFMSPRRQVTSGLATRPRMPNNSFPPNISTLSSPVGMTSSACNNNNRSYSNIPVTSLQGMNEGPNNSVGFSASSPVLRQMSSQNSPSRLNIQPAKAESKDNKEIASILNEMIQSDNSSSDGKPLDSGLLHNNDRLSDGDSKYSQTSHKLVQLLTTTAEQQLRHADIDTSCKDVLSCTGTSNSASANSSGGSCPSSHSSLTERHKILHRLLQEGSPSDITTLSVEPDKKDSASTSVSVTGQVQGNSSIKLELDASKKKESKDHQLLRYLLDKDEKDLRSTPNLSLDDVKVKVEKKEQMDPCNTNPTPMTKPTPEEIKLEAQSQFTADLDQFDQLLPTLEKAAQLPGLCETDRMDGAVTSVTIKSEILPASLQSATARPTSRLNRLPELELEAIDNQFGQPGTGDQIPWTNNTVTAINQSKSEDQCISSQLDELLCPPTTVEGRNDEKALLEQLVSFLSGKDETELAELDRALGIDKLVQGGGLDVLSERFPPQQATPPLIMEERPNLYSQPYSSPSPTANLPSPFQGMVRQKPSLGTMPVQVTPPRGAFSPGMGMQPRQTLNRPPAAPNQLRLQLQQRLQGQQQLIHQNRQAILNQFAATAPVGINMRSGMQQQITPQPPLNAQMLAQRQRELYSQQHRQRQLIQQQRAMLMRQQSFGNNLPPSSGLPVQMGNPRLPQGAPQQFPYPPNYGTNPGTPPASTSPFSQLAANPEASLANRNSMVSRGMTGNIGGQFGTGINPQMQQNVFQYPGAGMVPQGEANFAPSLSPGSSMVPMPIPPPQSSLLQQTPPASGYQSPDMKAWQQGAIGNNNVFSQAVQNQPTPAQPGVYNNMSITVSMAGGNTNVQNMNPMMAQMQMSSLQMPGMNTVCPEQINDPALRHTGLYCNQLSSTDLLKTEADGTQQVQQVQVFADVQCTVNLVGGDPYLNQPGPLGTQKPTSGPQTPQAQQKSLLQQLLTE

For the substance “SLIM3: LIM-domain protein of 279 amino acids, co-activator for nuclear receptors AR and ERβ”, the figures for the interaction with co-activator entry in assay [1], in assay [2] and in assay [4] were “interacts”, “no interaction” and “interacts”, respectively. Besides, the “bond to SLIM3” value in assay [3] is “no bond”.

The values above are taken from patent US20020004209A1, “Use of SLIM3 for binding to molecules” (Schering Aktiengesellschaft Patents, priority 1999, published 2002).
